Measured values from patent publication US7438916B2, “Therapeutic target for protozoal diseases” (priority 2005, dated 2008).

How the values were obtained:
HepG2 cells [1] = test: Liver cell binding inhibition assay with glycosaminoglycans; assay type: cell-based, human; conditions: FIG. 6
Method: Liver Cell binding assay: The binding of proteins was assayed on HepG2 cells as described previously (1, 31). Briefly, cells were plated at a density of 25,000 cells/well, in a 96 well plate, 36 hours before the start of the experiment. The cells were fixed with paraformaldehyde, blocked with 1% BSA, followed by the addition of equimolar concentrations of recombinant proteins. Bound protein was detected using anti-polyhistidine tag monoclonal antibody (1:10,000) and anti-mouse antibody conjugated to alkaline phosphatase (1:2000). Amount of bound protein was detected by using 4-methylumbelliferyl phosphate, a fluorescent substrate, and measurement of fluorescence using a fluorescent plate reader (Molecular Devices, CA) with excitation and emission set at 350 nm and 460 nm respectively. Results are shown as mean±standard deviation of mean of a representative experiment performed in triplicate. Binding inhibition assays were performed by combining the recombinant proteins with increasing amounts of glycosaminoglycans and incubating at 37° C. for 15 min. For enzyme treatment, cells were incubated with different concentrations of Heparinase I or Chondroitinase ABC for 90 minutes at 37° C. as previously described (31), before the addition of proteins. The bound protein was assayed as described above. […]

FRAP = target: T1, FRAP (Plasmodium falciparum, UniProt Q8IL04); test: Inhibition of FRAP-mediated hemozoin formation; assay type: biochemical, P. falciparum; conditions: different concentrations, FIG. 14
T1 construct: The activity requires the complete protein as two truncated variants of FRAP; made in house; host or cells: E. coli BL21
Method: FIG. 14. Inhibition of FRAP-mediated hemozoin formation by Chloroquine. Hemozoin formation was investigated in the absence or presence of different concentrations of chloroquine, an antimalarial drug with high affinity for heme.
(§1) The standard assay contained in a total volume of 1.0 ml: 500 mM sodium acetate pH 5.2, 300 nmol/ml hemin-Cl (as substrate) and 500 pmol/ml FRAP, as the source of heme polymerase activity. The amount of FRAP added was chosen such that 50% of the substrate was converted into product (insoluble hemozoin) during the assay. The reaction was initiated by protein addition and allowed to proceed for 16 hours at 37 degree. The reaction was terminated by adding 0.01 ml of 10% SDS solution. The reaction tube was centrifuged at 13,000 rpm for 15 minutes at 23 degrees and the supernatant was carefully removed. The pellet, which contained the polymerized and insoluble hemozoin, was resuspended in 1 ml of 0.1 M sodium bicarbonate pH 9.1 containing 2.5% SDS. […] The pellet obtained after final washing was dissolved in 0.3 ml of 0.1 N NaOH and the absorbance of the solution was measured at 405 nm using a spectrophotometer. Amount of heme polymerized was calculated utilizing a standard curve, prepared by dissolving known amounts of commercially available beta-hematin in 0.1 N NaOH. […]

heme = test: FRAP-mediated hemozoin formation assay; assay type: biochemical; conditions: result in words
Method: FIG. 8. FRAP-mediated neutralization of toxic heme into non-toxic Hemozoin. 500 pmoles of each of the protein was incubated with different concentrations of free heme at 37° C. for 16 hours, under acidic conditions (500 mM Sodium acetate pH 5.2). After 16 hours, free heme was removed by washing and the insoluble pellet representing hemozoin was solubalized in sodium hydroxide and estimated using a spectrophotometer.
as §1, with “degree.” for “degree. The reaction was terminated by adding 0.01 ml of 10% SDS solution. The reaction tube was centrifuged at 13,000 rpm for 15 minutes at 23 degrees and the supernatant was carefully removed. The pellet, which contained the polymerized and insoluble hemozoin, was resuspended in 1 ml of 0.1 M sodium bicarbonate pH 9.1 containing 2.5% SDS.”
Furthermore, the hemozoin formation was also evaluated with truncated variants and point mutants of FRAP to not only describe its structural requirements, but also pin point the residues that are involved in the polymerization process.

HepG2 cells [2] = test: Liver cell binding assay; assay type: cell-based, human; conditions: FIG. 5
Method: (§2) Liver Cell binding assay: The binding of proteins was assayed on HepG2 cells as described previously (1, 31). Briefly, cells were plated at a density of 25,000 cells/well, in a 96 well plate, 36 hours before the start of the experiment. The cells were fixed with paraformaldehyde, blocked with 1% BSA, followed by the addition of equimolar concentrations of recombinant proteins. Bound protein was detected using anti-polyhistidine tag monoclonal antibody (1:10,000) and anti-mouse antibody conjugated to alkaline phosphatase (1:2000). Amount of bound protein was detected by using 4-methylumbelliferyl phosphate, a fluorescent substrate, and measurement of fluorescence using a fluorescent plate reader (Molecular Devices, CA) with excitation and emission set at 350 nm and 460 nm respectively. Results are shown as mean±standard deviation of mean of a representative experiment performed in triplicate. Binding inhibition assays were performed by combining the recombinant proteins with increasing amounts of glycosaminoglycans and incubating at 37° C. for 15 min. For enzyme treatment, cells were incubated with different concentrations of Heparinase I or Chondroitinase ABC for 90 minutes at 37° C. as previously described (31), before the addition of proteins. The bound protein was assayed as described above.
Therefore, binding activity was probed using a polyhistidine tag monoclonal antibody. […]

HepG2 cells [3] = test: Binding to liver cells pretreated with glycosaminoglycan cleaving enzyme; assay type: cell-based, human; conditions: for Inhibition of Binding (%): 100 nM protein
Method: as §2
The involvement of HSPG as a receptor was further verified by evaluating the binding of the protein on liver cells that were pretreated with specific glycosaminoglycan-cleaving enzymes. Cells were pre-treated with heparinase I or chondroitinase ABC followed by the evaluation of binding activity of FRAP and FRAP2. Heparinase I selectively removes heparan sulfate while chondroitinase ABC cleaves chondroitin sulfate A, B and C type sugars from the liver cell surface. Both, FRAP and FRAP2 lost 50% of their binding activity on heparinase I treated cells (Table 4) confirming the involvement of a heparin-based receptor on the liver cell surface.

[4] = tested on: P. falciparum sporozoites; test: Sporozoite invasion assay; assay type: cell-based, P. falciparum (strain NF54); conditions: versus culture medium
Method: Sporozoite Invasion Assay: Invasion assay was performed with HepG2 (Human hepatoma) cells as previously described (31). Briefly, HepG2 cells were plated (50,000 cells/0.3 ml) and incubated overnight at 37° C. in a CO2 incubator. Next day, medium was removed and 50 μl of diluted FRAP proteins (final concentrations: 20 and 10 μg/ml) or anti-FRAP2 antibodies (40 μg/ml final concentration) were added per well. Anti CS monoclonal antibody NFS1 was used at a final concentration of 100 μg/ml. All protein concentrations and serum dilutions were evaluated in triplicate. This was immediately followed by the addition of 20,000 sporozoites in 50 μl of medium to each well. P. falciparum (strain NF54) sporozoites were obtained from the salivary glands of An. stephensi mosquitoes as described by Ozaki (33). The sporozoites were allowed to invade liver cells for three hours followed by the washing of cells with PBS at pH 7.4. Subsequently, the cells were fixed with cold methanol. Sporozoites were visualized by immunostaining using NFS1 as primary antibody and anti-mouse IgG-peroxidase conjugate. The slides were mounted with Paramount and only intracellular sporozoites were counted as described (31). Percentage inhibition of invasion was calculated with the following formula: [(Control-test)/control]×100 Results

T1 sequence (Q8IL04 whole entry, the tested form may be a part): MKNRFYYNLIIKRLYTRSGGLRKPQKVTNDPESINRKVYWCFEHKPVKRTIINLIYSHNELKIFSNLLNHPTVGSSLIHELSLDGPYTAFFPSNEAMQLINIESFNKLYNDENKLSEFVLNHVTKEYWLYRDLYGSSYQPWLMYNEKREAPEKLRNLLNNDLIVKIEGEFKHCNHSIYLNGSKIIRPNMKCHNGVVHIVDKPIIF

chondroitin sulfate A [reference compound]
inhibition of FRAP and FRAP2 binding to liver cells by the glycosaminoglycan (HepG2 cells [1]; highest concentration evaluated): no inhibition

CCN(CC)CCCC(C)Nc1ccnc2cc(Cl)ccc12 (centres unmarked) [Chloroquine, chloroquine]
inhibition of FRAP-mediated hemozoin formation (FRAP): inhibited heme polymerization in a dose dependent manner | inhibition of FRAP-mediated hemozoin formation (FRAP; listed as chloroquine): effectively inhibited

B1: FRAP from rodent malaria parasite P. yoelii: P. yoelii FRAP ortholog, SEQ ID NO: 9 (protein, listed as Plasmodium yoelii)
chain: MKKKLYNLVLKRSYTRSGGLRKPQKVTNDPESINRKVYWCFEHKPVRRTVINLIFSHNELKNFSTLLRNTNASSSLIHELSLEGPYTGFLPSDEALNLLSTNSLNKLYKDDNKMSEFVLNHFTKGLWMYRDLYGSSYQPWLMYNEKREAPEKIQTLVNNDIIVKIEGEFKNCDHSIYLNEAKIIRPNMKCHNGIIHIIDKPIIF
hemozoin formation (heme polymerization) activity (heme): demonstrated

B2: FRAP2: truncated FRAP containing only amino acids 1-87, SEQ ID NO: 25 (protein, listed as Plasmodium falciparum)
chain: MKNRFYYNLIIKRLYTRSGGLRKPQKVTNDPESINRKVYWCFEHKPVKRTIINLIYSHNELKIFSNLLNHPTVGSSLIHELSLDGPY
loss of binding activity in comparison to the full length protein (HepG2 cells [2]): 50% | binding on liver cells (HepG2 cells [2]; five concentrations of recombinant protein): only half the strength | reduction of binding activity in the presence of free heparin (HepG2 cells [1]; HepG2 cells): 60% | Inhibition of Binding (%) (HepG2 cells [3]; cells pretreated with Heparinase I 1.25 U/ml for 90 minutes): 42.3 ± 10.4% | Inhibition of Binding (%) (HepG2 cells [3]; cells pretreated with Heparinase I 2.50 U/ml for 90 minutes): 41.4 ± 1.5% | Inhibition of Binding (%) (HepG2 cells [3]; cells pretreated with Heparinase I 5.00 U/ml for 90 minutes): 49.4 ± 9.2% | loss of binding activity on heparinase I treated cells (HepG2 cells [3]; text summary of Table 4): 50% | % Inhibition of invasion of HepG2 cells by P. falciparum sporozoites ([4]; 10 μg/ml): 88.1 ± 4.6% | % Inhibition of invasion of HepG2 cells by P. falciparum sporozoites ([4]; 20 μg/ml): 92.4% | hemozoin formation (heme polymerization) activity (heme): did not show any hemozoin formation
